Substitutions are numbered along the chain they refer to.

Sequences and labels used below:
T1: human TREM2 (triggering receptor expressed on myeloid cells 2) (human) (UniProt Q9NZC2)
T1 sequence (looked up): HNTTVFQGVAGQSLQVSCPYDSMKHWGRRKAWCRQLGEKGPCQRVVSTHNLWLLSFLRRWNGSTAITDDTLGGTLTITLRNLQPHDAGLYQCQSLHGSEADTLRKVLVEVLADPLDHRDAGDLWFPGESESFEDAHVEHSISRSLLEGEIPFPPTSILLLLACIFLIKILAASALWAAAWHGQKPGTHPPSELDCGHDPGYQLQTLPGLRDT

B1: 6E7 antibody affinity modulation variant V38 (antibody, V domains shown)
VH: EVQLVQSGAEVKKPGESLKISCKGSGYSFGSYWIAWVRQMPGKGLEWMGIIYPGDSDVRYSPSFQGQVTISADKSISTAYLQWSSLKASDTAMYFCARQRTFYYDSSDYFDYWGQGTLVTVSS
VL: DIQMTQSPSSVSASVGDRVTITCRASQGISSWLAWYQQKPGKAPKLLIYAASSRQNGVPSRFSGSGSGTDFTLTISSLQPEDFATYFCQQADSHPRTFGQGTKLEIK
B2: 6E7 antibody affinity modulation variant V74 (antibody, V domains shown)
VH: B1 VH with G30A, Q99G
VL: B1 VL with R54L, N56L, H94F
B3: 6E7 antibody affinity modulation variant V60 (antibody, V domains shown)
VH: B1 VH with S28H, G30T, F110S
VL: B1 VL with R54L, N56R, Q89G, H94F
B4: 6E7 antibody affinity modulation variant V2 (antibody, V domains shown)
VH: B1 VH with Y27S, G30T, S56G, V58T, Q99S
VL: B1 VL with S93R, H94F
B5: 6E7 antibody affinity modulation variant V84 (antibody, V domains shown)
VH: B1 VH with S28G, G30T, V58T, F110S
VL: B1 VL with A50G, R54L, H94F
B6: 6E7 antibody affinity modulation variant V53 (antibody, V domains shown)
VH: B1 VH with G30T, V58T, S63H
VL: B1 VL with R54L, H94F
B7: 6E7 antibody affinity modulation variant V77 (antibody, V domains shown)
VH: B1 VH with G30T, V58T
VL: B1 VL with H94F
B8: 6E7 antibody affinity modulation variant V40 (antibody, V domains shown)
VH: B1 VH with F110S
VL: B1 VL with R54L, N56L, S93R, H94F
B9: 6E7 antibody affinity modulation variant V49 (antibody, V domains shown)
VH: B1 VH with G30N, I50T, V58T, Y60L, Q99S
VL: B1 VL with H94Y
B10: 6E7 antibody affinity modulation variant V61 (antibody, V domains shown)
VH: B1 VH with G30S, V58T, S61N, Q99G
VL: B1 VL with R54L, Q55V, H94L
B11: 6E7 antibody affinity modulation variant V50 (antibody, V domains shown)
VH: B1 VH with I50V, V58T, F110L
VL: B1 VL with H94L
B12: 6E7 antibody affinity modulation variant V85 (antibody, V domains shown)
VH: B1 VH with G30R, I50T, V58T, Q99S
VL: B1 VL with H94F
B13: 6E7 antibody affinity modulation variant V75 (antibody, V domains shown)
VH: B1 VH with G30T, V58T, Q99G
VL: B1 VL with R54L, N56A, H94Y
B14: 6E7 antibody affinity modulation variant V63 (antibody, V domains shown)
VH: B1 VH with G30R, V58T, Q99S
VL: B1 VL with R54L, N56R, S93R, H94F
B15: 6E7 antibody affinity modulation variant V64 (antibody, V domains shown)
VH: B1 VH with G30Q, V58T, Q99G
VL: B1 VL with R54L, Q55A, H94Y
B16: 6E7 antibody affinity modulation variant V76 (antibody, V domains shown)
VH: B1 VH with V58T, S63E, F110S
VL: B1 VL with R54L, N56K, T69R, H94F
B17: 6E7 antibody affinity modulation variant V87 (antibody, V domains shown)
VH: B1 VH with G30R, S63D, Q99S
VL: B1 VL with R54L, N56W, H94F
B18: 6E7 antibody affinity modulation variant V39 (antibody, V domains shown)
VH: B1 VH with V58T, S61N, Q99G
VL: B1 VL with R54L, Q55V, H94S
B19: 6E7 antibody affinity modulation variant V51 (antibody, V domains shown)
VH: B1 VH with G30T, Q99G, Y112N
VL: B1 VL with H94F
B20: 6E7 antibody affinity modulation variant V65 (antibody, V domains shown)
VH: B1 VH with G30T, V58T, Q99S
VL: B1 VL with R54L, H94F
B21: 6E7 antibody affinity modulation variant V3 (antibody, V domains shown)
VH: B1 VH with G30A, V58T, G66D, Q99G
VL: B1 VL with S93R, H94F
B22: 6E7 antibody affinity modulation variant V48 (antibody, V domains shown)
VH: B1 VH with Q99M
VL: B1 VL with R54L, N56T, H94L
B23: 6E7 antibody affinity modulation variant V86 (antibody, V domains shown)
VH: B1 VH with I34L, V58T, Q65E, Q99S
VL: B1 VL with H94F
B24: 6E7 antibody affinity modulation variant V41 (antibody, V domains shown)
VH: B1 VH with G30T, I50T, V58T
VL: B1 VL with R54L, H94F
B25: 6E7 antibody affinity modulation variant V62 (antibody, V domains shown)
VH: B1 VH with V58T, S61A, D108G
VL: B1 VL with R54L, N56R, Q89G, H94F
B26: 6E7 antibody affinity modulation variant V1 (antibody, V domains shown)
VH: B1 VH with G30T, Y32S, V58T, Q99S
VL: B1 VL with R54L, Q55T, H94Y
B27: 6E7 antibody affinity modulation variant V73 (antibody, V domains shown)
VH: B1 VH with V58T, S63G, Q99G
VL: B1 VL with H94Y

One experiment concerns the target T1, human TREM2 (triggering receptor expressed on myeloid cells 2) (human). Description: 2nd screen, 2 nM Ab.
For B1, the Binding Signal (fold over 6E7 parental antibody) came out at 3.44 fold.
The same measure, in the same setting: next, B2: 2.54 fold.
On the same count and under the same terms, next, B3: 3.35 fold; B4: 2.23 fold.
For the molecule B5, the Binding Signal (fold over 6E7 parental antibody) stood at 1.45 fold.
Regarding B6, the Binding Signal (fold over 6E7 parental antibody) is 0.66 fold.
Take B7: the Binding Signal (fold over 6E7 parental antibody) stood at 0.83 fold.
Still for that read-out and setting: then B8, with 3.41 fold; and B9, with 5.02 fold; and B10, with 3.63 fold.
The same measure, in the same setting: then B11, with 3.39 fold; and B12, with 5.41 fold; and B13, with 3.74 fold.
Take B14: the Binding Signal (fold over 6E7 parental antibody) worked out at 4.91 fold.
Still for that read-out and setting: next, B15: 4.88 fold; B16: 4.34 fold; B17: 4.86 fold.
The same measure, in the same setting: next, B18: 5.11 fold; B19: 1.83 fold.
On the same count and under the same terms, then B20, with 1.29 fold.
On to B21, for which the Binding Signal (fold over 6E7 parental antibody) amounted to 1.95 fold.
On the same count and under the same terms, next, B22: 2.3 fold; B23: 5.17 fold; B24: 0.58 fold.
In the case of B25, the Binding Signal (fold over 6E7 parental antibody) is 1.87 fold.
Same read-out and setting: then B26, with 1.29 fold; and B27, with 4.17 fold.

For the next experiment the target is unchanged. Description: 1st screen, 10 nM Ab.
With B1, the Binding Signal (fold over 6E7 parental antibody) was found to be 4.34 fold.
On the same count and under the same terms, next, B2: 3.94 fold.
Still for that read-out and setting: next, B3: 3.26 fold; B4: 2.55 fold.
Same read-out and setting: next, B5: 1.44 fold; B6: 1.25 fold; B7: 1.43 fold.
On to B8, for which the Binding Signal (fold over 6E7 parental antibody) was found to be 4.48 fold.
As to B9, the Binding Signal (fold over 6E7 parental antibody) stood at 6.51 fold.
Still for that read-out and setting: then B10, with 5.08 fold; and B11, with 4.1 fold; and B12, with 5.41 fold.
Still for that read-out and setting: then B13, with 4.64 fold; and B14, with 3.76 fold; and B15, with 5.41 fold.
Same read-out and setting: next, B16: 4.57 fold; B17: 3.84 fold; B18: 6.15 fold.
Turning to B19, the Binding Signal (fold over 6E7 parental antibody) came to 2.81 fold.
For B20, the Binding Signal (fold over 6E7 parental antibody) turned out to be 2.05 fold.
On the same count and under the same terms, then B21, with 1.97 fold.
Still for that read-out and setting: next, B22: 2.42 fold.
Same read-out and setting: then B23, with 4.8 fold.
As to B24, the Binding Signal (fold over 6E7 parental antibody) was determined as 1.74 fold.
B25: the Binding Signal (fold over 6E7 parental antibody) came to 2.49 fold.
Still for that read-out and setting: then B26, with 1.68 fold; and B27, with 5.12 fold.

For the next experiment the target is unchanged. Description: 2nd screen, 10 nM Ab.
Regarding B1, the Binding Signal (fold over 6E7 parental antibody) was 4.36 fold.
Still for that read-out and setting: then B2, with 4.01 fold.
Same read-out and setting: next, B3: 3.63 fold; B4: 2.9 fold; B5: 1.62 fold.
Same read-out and setting: then B6, with 1.17 fold.
On to B7, for which the Binding Signal (fold over 6E7 parental antibody) amounted to 1.38 fold.
Same read-out and setting: next, B8: 4.16 fold; B9: 6.58 fold.
On the same count and under the same terms, then B10, with 5.22 fold.
On the same count and under the same terms, next, B11: 4.16 fold.
As for B12, the Binding Signal (fold over 6E7 parental antibody) was determined as 5.37 fold.
For B13, the Binding Signal (fold over 6E7 parental antibody) stood at 4.52 fold.
The same measure, in the same setting: then B14, with 3.71 fold; and B15, with 5.48 fold.
The same measure, in the same setting: next, B16: 4.93 fold; B17: 3.93 fold; B18: 5.81 fold.
As for B19, the Binding Signal (fold over 6E7 parental antibody) is 3.18 fold.
Same read-out and setting: then B20, with 2.75 fold; and B21, with 2.24 fold.
On the same count and under the same terms, next, B22: 2.54 fold; B23: 5.02 fold; B24: 1.72 fold.
Still for that read-out and setting: then B25, with 2.89 fold.
Take B26: the Binding Signal (fold over 6E7 parental antibody) was 1.92 fold.
Consider B27, for which the Binding Signal (fold over 6E7 parental antibody) came out at 5.44 fold.

These data come from US20250019437A1.
